# Measurements as given in the supplement of paper PMC9112550, “Optimization of the antimicrobial peptide Bac7 by deep mutational scanning” (BMC Biology, 2022).
# Test system: Escherichia coli TOP10
# Experiment: shrunken log2 fold change of peptide-encoding DNA abundance (4.5 h post-induction vs induction); higher = less antimicrobial activity (less host growth inhibition)
# Conditions: time post-induction: 4.5 h; library: site-saturation at positions 5, 18, 19, 20
# 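Note: peptides expressed intracellularly from a pBAD plasmid library in pooled LB shake-flask culture, induced with 0.3% L-arabinose, DNA abundance read by NGS, three biological replicates, DESeq2 with apeglm shrinkage.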
row,Sequence,shrunken log2 fold change
1,RRIRARPPRLPRPRPRPVCKPRP,0.195
2,RRIRERPPRLPRPRPRPYSSPRP,-0.0288
3,RRIRQRPPRLPRPRPRPGPTPRP,0.0273
4,RRIRHRPPRLPRPRPRPIWPPRP,0.0213
5,RRIRMRPPRLPRPRPRPKCVPRP,0.0964
6,RRIRHRPPRLPRPRPRPPEGPRP,0.168
7,RRIRKRPPRLPRPRPRPEWEPRP,0.271
8,RRIRYRPPRLPRPRPRPEWIPRP,0.0106
9,RRIRRRPPRLPRPRPRPQQLPRP,-0.0976
10,RRIRTRPPRLPRPRPRPDWFPRP,-0.112
11,RRIRCRPPRLPRPRPRPLDNPRP,-0.235
12,RRIRFRPPRLPRPRPRPILVPRP,-0.152
13,RRIRDRPPRLPRPRPRPVHGPRP,1.43
14,RRIRMRPPRLPRPRPRPCRPPRP,0.00908
15,RRIRTRPPRLPRPRPRPYPSPRP,-0.575
16,RRIRVRPPRLPRPRPRPMNWPRP,-0.474
17,RRIRIRPPRLPRPRPRPYVRPRP,-0.199
18,RRIRCRPPRLPRPRPRPGHFPRP,-0.217
19,RRIRTRPPRLPRPRPRPWTDPRP,-0.17
20,RRIRSRPPRLPRPRPRPVHMPRP,-0.322
21,RRIRVRPPRLPRPRPRPDPYPRP,-0.1
22,RRIRHRPPRLPRPRPRPGAMPRP,0.392
23,RRIRPRPPRLPRPRPRPDCDPRP,0.0888
24,RRIRLRPPRLPRPRPRPFFRPRP,-0.0862
25,RRIRCRPPRLPRPRPRPGFAPRP,0.354

row,Sequence,shrunken log2 fold change
1,RRIRYRPPRLPRPRPRPWSAPRP,-0.237
2,RRIRMRPPRLPRPRPRPPNQPRP,0.42
3,RRIRGRPPRLPRPRPRPWAVPRP,-0.142
4,RRIRKRPPRLPRPRPRPFSLPRP,-0.189
5,RRIRPRPPRLPRPRPRPPLVPRP,0.389
6,RRIRCRPPRLPRPRPRPDMEPRP,0.000584
7,RRIRPRPPRLPRPRPRPSAQPRP,-0.0511
8,RRIRKRPPRLPRPRPRPTCDPRP,-0.00872
9,RRIRPRPPRLPRPRPRPVNGPRP,0.0391
10,RRIRARPPRLPRPRPRPAMQPRP,0.723
11,RRIRDRPPRLPRPRPRPENWPRP,0.695
12,RRIRTRPPRLPRPRPRPTVNPRP,-0.217
13,RRIRMRPPRLPRPRPRPEQAPRP,4.07
14,RRIRPRPPRLPRPRPRPDMAPRP,-0.119
15,RRIRMRPPRLPRPRPRPRYEPRP,-0.0771
16,RRIRDRPPRLPRPRPRPYNFPRP,-0.0811
17,RRIRYRPPRLPRPRPRPVGGPRP,-0.179
18,RRIRRRPPRLPRPRPRPMLKPRP,0.0333
19,RRIRGRPPRLPRPRPRPWKTPRP,-0.0497
20,RRIRLRPPRLPRPRPRPYGYPRP,-0.01
21,RRIRVRPPRLPRPRPRPVYQPRP,-0.243
22,RRIRKRPPRLPRPRPRPMWPPRP,-0.00167
23,RRIRIRPPRLPRPRPRPAGLPRP,-0.0628
24,RRIRGRPPRLPRPRPRPASCPRP,1.06
25,RRIRKRPPRLPRPRPRPEGLPRP,1.05

row,Sequence,shrunken log2 fold change
1,RRIRKRPPRLPRPRPRPIHQPRP,-0.0102
2,RRIRERPPRLPRPRPRPQSVPRP,-0.0488
3,RRIRYRPPRLPRPRPRPWKNPRP,-0.458
4,RRIRVRPPRLPRPRPRPPRRPRP,0.491
5,RRIRARPPRLPRPRPRPQLVPRP,0.308
6,RRIRGRPPRLPRPRPRPFGNPRP,0.0288
7,RRIRWRPPRLPRPRPRPSRMPRP,0.0635
8,RRIRVRPPRLPRPRPRPTFGPRP,0.215
9,RRIRFRPPRLPRPRPRPHLSPRP,-0.219
10,RRIRPRPPRLPRPRPRPWNFPRP,-0.205
11,RRIRTRPPRLPRPRPRPRDEPRP,0.146
12,RRIRTRPPRLPRPRPRPSTYPRP,-0.4
13,RRIRQRPPRLPRPRPRPRMVPRP,0.166
14,RRIRVRPPRLPRPRPRPIGDPRP,0.0238
15,RRIRLRPPRLPRPRPRPEYNPRP,-0.15
16,RRIRPRPPRLPRPRPRPLWNPRP,-0.0917
17,RRIRFRPPRLPRPRPRPNLIPRP,-0.347
18,RRIRTRPPRLPRPRPRPFCFPRP,-0.134
19,RRIRRRPPRLPRPRPRPERAPRP,0.79
20,RRIRVRPPRLPRPRPRPCSDPRP,-0.0601
21,RRIRQRPPRLPRPRPRPFSYPRP,-0.0227
22,RRIRGRPPRLPRPRPRPKAIPRP,0.363
23,RRIRWRPPRLPRPRPRPAQRPRP,0.418
24,RRIRQRPPRLPRPRPRPPIWPRP,0.113
25,RRIRERPPRLPRPRPRPTEHPRP,-0.144

row,Sequence,shrunken log2 fold change
1,RRIRTRPPRLPRPRPRPQGQPRP,-0.186
2,RRIRARPPRLPRPRPRPLLNPRP,0.373
3,RRIRFRPPRLPRPRPRPKRRPRP,0.0555
4,RRIRTRPPRLPRPRPRPRWSPRP,0.0798
5,RRIRDRPPRLPRPRPRPEGQPRP,1.15
6,RRIRFRPPRLPRPRPRPNKMPRP,-0.231
7,RRIRIRPPRLPRPRPRPVSDPRP,-0.619
8,RRIRSRPPRLPRPRPRPYWGPRP,-0.0576
9,RRIRARPPRLPRPRPRPFACPRP,0.829
10,RRIRWRPPRLPRPRPRPASNPRP,-0.0347
11,RRIRHRPPRLPRPRPRPEAQPRP,-0.00183
12,RRIRRRPPRLPRPRPRPGDEPRP,-0.0622
13,RRIRPRPPRLPRPRPRPQYIPRP,-0.457
14,RRIRGRPPRLPRPRPRPRRWPRP,0.841
15,RRIRNRPPRLPRPRPRPTQVPRP,0.152
16,RRIRERPPRLPRPRPRPAETPRP,0.0123
17,RRIRDRPPRLPRPRPRPVGNPRP,0.114
18,RRIRTRPPRLPRPRPRPHEAPRP,-0.0062
19,RRIRDRPPRLPRPRPRPHNFPRP,0.0112
20,RRIRRRPPRLPRPRPRPLNMPRP,-0.126
21,RRIRSRPPRLPRPRPRPCFNPRP,-0.828
22,RRIRGRPPRLPRPRPRPGTCPRP,0.165
23,RRIRTRPPRLPRPRPRPDSLPRP,-0.153
24,RRIRTRPPRLPRPRPRPRDTPRP,-0.0276
25,RRIRVRPPRLPRPRPRPKPAPRP,0.431

row,Sequence,shrunken log2 fold change
1,RRIRVRPPRLPRPRPRPWTEPRP,-0.0547
2,RRIRMRPPRLPRPRPRPFEPPRP,0.174
3,RRIRWRPPRLPRPRPRPDLTPRP,0.251
4,RRIRARPPRLPRPRPRPSEHPRP,-0.301
5,RRIRDRPPRLPRPRPRPDLFPRP,0.0296
6,RRIRARPPRLPRPRPRPCFHPRP,-0.0446
7,RRIRWRPPRLPRPRPRPVVRPRP,0.405
8,RRIRLRPPRLPRPRPRPNSWPRP,-0.0901
9,RRIRTRPPRLPRPRPRPFNAPRP,-0.344
10,RRIRCRPPRLPRPRPRPKTPPRP,0.827
11,RRIRPRPPRLPRPRPRPRFFPRP,0.211
12,RRIRWRPPRLPRPRPRPTAYPRP,0.0204
13,RRIRQRPPRLPRPRPRPTTIPRP,-0.116
14,RRIRLRPPRLPRPRPRPSQFPRP,-0.12
15,RRIRKRPPRLPRPRPRPSEKPRP,0.428
16,RRIRGRPPRLPRPRPRPIDGPRP,0.245
17,RRIRGRPPRLPRPRPRPFQRPRP,-0.0485
18,RRIRIRPPRLPRPRPRPAEHPRP,0.0405
19,RRIRLRPPRLPRPRPRPGTAPRP,0.362
20,RRIRMRPPRLPRPRPRPMSWPRP,0.132
21,RRIRWRPPRLPRPRPRPNYTPRP,-0.279
22,RRIRERPPRLPRPRPRPKYTPRP,-0.297
23,RRIRARPPRLPRPRPRPENIPRP,-0.251
24,RRIRLRPPRLPRPRPRPSNTPRP,-0.624
25,RRIRHRPPRLPRPRPRPAWMPRP,0.574

row,Sequence,shrunken log2 fold change
1,RRIRMRPPRLPRPRPRPNVLPRP,0.359
2,RRIRPRPPRLPRPRPRPHSYPRP,0.0057
3,RRIRERPPRLPRPRPRPESGPRP,-0.0112
4,RRIRHRPPRLPRPRPRPDLTPRP,-0.000777
5,RRIRIRPPRLPRPRPRPWHQPRP,-0.00186
6,RRIRCRPPRLPRPRPRPEIEPRP,-0.00676
7,RRIRNRPPRLPRPRPRPGYDPRP,0.166
8,RRIRQRPPRLPRPRPRPEEKPRP,0.00355
9,RRIRCRPPRLPRPRPRPPNAPRP,0.262
10,RRIRMRPPRLPRPRPRPHHKPRP,-0.316
11,RRIRGRPPRLPRPRPRPESLPRP,0.595
12,RRIRVRPPRLPRPRPRPAWSPRP,0.192
13,RRIRIRPPRLPRPRPRPTDLPRP,-0.289
14,RRIRLRPPRLPRPRPRPNIWPRP,-0.0307
15,RRIRCRPPRLPRPRPRPNVGPRP,0.0143
16,RRIRERPPRLPRPRPRPWRRPRP,0.115
17,RRIRQRPPRLPRPRPRPCYTPRP,-0.149
18,RRIRPRPPRLPRPRPRPQAYPRP,-0.215
19,RRIRFRPPRLPRPRPRPFYMPRP,-0.317
20,RRIRMRPPRLPRPRPRPVHCPRP,0.517
21,RRIRLRPPRLPRPRPRPMKKPRP,0.0162
22,RRIRQRPPRLPRPRPRPCTAPRP,0.139
23,RRIRRRPPRLPRPRPRPWELPRP,0.0522
24,RRIRTRPPRLPRPRPRPDKKPRP,-0.0143
25,RRIRVRPPRLPRPRPRPCASPRP,0.116
